Data on one molecule can be found in WO2021028752A1 (dated 2021).

The experiment concerns the target recombinant human TNFa (human, UniProt P01375 77-233, 125I label (only in the receptor inhibition assay)). As to the kind of experiment: cell-based or functional assay.

recombinant human TNFa, sequence (P01375 77-233 limits assumed): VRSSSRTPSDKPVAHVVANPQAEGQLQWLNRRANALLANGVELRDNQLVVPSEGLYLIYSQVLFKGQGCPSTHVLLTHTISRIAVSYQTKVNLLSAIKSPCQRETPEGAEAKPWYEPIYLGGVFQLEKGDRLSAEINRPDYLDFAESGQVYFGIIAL

B1: TNV196 (antibody, V domains shown)
VH: QVQLVESGGGVVQPGRSLRLSCAASGFTFSSYAMHWVRQAPGKGLEWVAFISYDGSNKKSADSVKGRFTVSRDNSKNTLFLQMNSLRAEDTAVFYCARDRGIGAGGNYYYYGMDVWGQGTTVTVSS
VL: EIVLTQSPATLSLSPGERATLSCRASQSVYSYLAWYQQKPGQAPRLLIYDASNRATGIPARFSGSGSGTDFTLTISSLEPEDFAVYYCQQRSNWPPFTFGPGTKVDIK
For the molecule B1, the “neutralizing TNFa bioactivity” value was determined as 4 fold.
